In publication PMC4627230, “Identification of TAX2 peptide as a new unpredicted anti-cancer agent” (Oncotarget, 2015):

Molecular target: T1, CD36, endogenous in HUVECs (human (endogenous in HUVECs), UniProt P16671 1-472)
T1 construct: CD36, endogenous in HUVECs; immunoprecipitated with anti-CD36; also called CD36-containing complexes; source: endogenous, HUVEC whole cell extracts
Test: co-IP; antibody (anti-CD47 B6H12, anti-CD36, anti-FGF2, anti-VEGF, anti-β1 integrin, anti-LRP1 heavy chain) covalently coupled to resin (Pierce Co-IP kit), incubated with whole HUVEC protein lysate (or conditioned media) overnight at 4°C, no cross-linker; cells treated with 100 μM TAX2 or control peptide; for VEGFR2 also 30 ng/mL VEGF for 5 min; immunoblot
Conditions: partners not purified

T1 sequence (P16671 whole entry): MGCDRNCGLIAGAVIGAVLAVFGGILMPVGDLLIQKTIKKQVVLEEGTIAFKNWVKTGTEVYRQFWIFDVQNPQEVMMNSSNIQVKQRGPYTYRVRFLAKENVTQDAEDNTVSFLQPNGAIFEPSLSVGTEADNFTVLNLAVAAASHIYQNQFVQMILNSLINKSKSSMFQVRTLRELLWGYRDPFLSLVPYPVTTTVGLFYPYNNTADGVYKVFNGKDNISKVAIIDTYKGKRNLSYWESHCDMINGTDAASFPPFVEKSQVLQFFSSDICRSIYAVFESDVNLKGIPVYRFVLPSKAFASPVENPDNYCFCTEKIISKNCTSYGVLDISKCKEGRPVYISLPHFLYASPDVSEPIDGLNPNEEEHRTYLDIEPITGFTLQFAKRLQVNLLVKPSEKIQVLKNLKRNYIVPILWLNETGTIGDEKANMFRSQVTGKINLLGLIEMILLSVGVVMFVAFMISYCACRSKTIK

fold increase of co-immunoprecipitated TSP-1 with TAX2 (100 μM) against control: 3 fold
B1: thrombospondin-1 (TSP-1), endogenous in HUVECs (natural protein)
chain: not shown
notes: thrombospondin-1, endogenous in human umbilical vein endothelial cells; detected by anti-TSP-1 (clone A6.1); source: endogenous, HUVEC protein lysate or conditioned media
